Measured values taken from article PMC6123711, “Conformational signatures in β-arrestin2 reveal natural biased agonism at a G-protein-coupled receptor” (Communications Biology, 2018).

Test system: human β-arrestin2 (Galr2-stimulated)
Experiment: Intramolecular FlasH BRET at β-arrestin2 conformational biosensors
Format: cell-based
Details: HEK293 cells, 10 μM agonist
Source text: To investigate the effects of GPCR activation on the dynamics of β-arrestin2 conformation, we developed a series of FlasH BRET conformational biosensors[31],[32] by inserting the six-amino-acid motif, CCPGCC, immediately after the amino acid residue 140 (FlasH1), 263 (FlasH2), and 410 (FlasH3), respectively, into the human β-arrestin2 (Fig. 7a, b). Due to its characteristics (e.g., small size, stable, and bright and sustained luminescence)[33], we covalently linked the Nluc to the N terminus of β-arrestin2 during probe design. Each probe (Nluc–β-arrestin2–FlasH1, 2, and 3) was designed to measure BRET between Nluc and a fluorescein arsenical acceptor located at one of three positions along β-arrestin2. We hypothesized that observing changes in BRET efficiency from multiple sites would produce a β-arrestin2 conformational hallmark characteristic for each ligand[31]. We used a structural complementation assay based on NanoBit technology to test whether the insertion of the FlasH motif would have an effect on β-arrestin2 recruitment. All three ligands were able to recruit these β-arrestin2–FlasH constructs to induce luminescence signals, although some signals were lower than that of wild-type β-arrestin2 (Fig. 7c). […]
Intramolecular BRET at β-arrestin2 conformational biosensors was measured based on the steps and procedures previously described. […]

B1: Spexin (peptide, UniProt Q9BT56 27-116, looked up)
Spexin: APQRLLERRNWTPQAMLYLKGAQGRRFISDQSRRKDLSDRPLPERRSPNPQLLTIPEAATILLASLQKSPEDEEKNFDQTRFLEDSLLNW
modifications: Spexin
notes: endogenous peptide ligand of Galr2 and Galr3; synthesized by AnyGen
For B1, the “ΔNet BRET in Nluc–β-arrestin2–FlasH1-3 versus Galanin” value (2 min, n = 3, each probe) was “significantly different from those observed in Galanin” and the “ΔNet BRET similarity between Spexin and Fmoc-dA4-dQ14” value (FlasH1-3 biosensors) was “very similar between Spexin and Fmoc-dA4-dQ14 except for the FlasH3 conformational biosensor”.
